Test results as given in article PMC12748774.

How the values were obtained:
[1] = biological target: JEV CC_FLE sE (G5C/G102C), disulfide-linked dimer (Japanese encephalitis virus (SA-14-14-2 strain)); experiment: SEC; purified sE proteins on a Superose 6 column
[2] = biological target: JEV CC_FLE sE (G5C/G102C), disulfide-linked dimer (Japanese encephalitis virus (SA-14-14-2 strain)); experiment: cryo-EM structure
[3] = biological target: WNV CC_FLE sE (G5C/G102C), dimer (West Nile virus); experiment: SEC; purified sE proteins on a Superose 6 column
[4] = biological target: WNV CC_FLE sE (G5C/G102C), dimer (West Nile virus); experiment: cryo-EM structure
[5] = biological target: ZIKV CC_Core sE (A264C), disulfide-linked dimer (Zika virus (Brazilian strain SPH2015)); experiment: SEC
[6] = biological target: ZIKV CC_Core sE (A264C), disulfide-linked dimer (Zika virus (Brazilian Zika SPH2015 strain)); experiment: SEC; purified sE proteins on a Superose 6 column
[7] = biological target: ZIKV CC_Core sE (A264C), disulfide-linked dimer (Zika virus (Brazilian Zika SPH2015 strain)); experiment: cryo-EM structure
[8] = biological target: ZIKV CC_Core sE (A264C), disulfide-linked dimer (Zika virus (Brazilian strain SPH2015)); experiment: SDS-PAGE with and without the reducing reagent DTT
[9] = biological target: ZIKV CC_FLE sE (G5C/G102C), disulfide-linked dimer (Zika virus (Brazilian strain SPH2015)); experiment: SEC
[10] = biological target: ZIKV CC_FLE sE (G5C/G102C), disulfide-linked dimer (Zika virus (Brazilian Zika SPH2015 strain)); experiment: SEC; purified sE proteins on a Superose 6 column
[11] = biological target: ZIKV CC_FLE sE (G5C/G102C), disulfide-linked dimer (Zika virus (Brazilian Zika SPH2015 strain)); experiment: cryo-EM structure
[12] = biological target: ZIKV CC_FLE sE (G5C/G102C), disulfide-linked dimer (Zika virus (Brazilian strain SPH2015)); experiment: SDS-PAGE with and without the reducing reagent DTT

Measured: stoichiometry N

JEV CC_FLE sE (G5C/G102C), disulfide-linked dimer (domain or fragment)
2: [1] | [2]

WNV CC_FLE sE (G5C/G102C), dimer (domain or fragment)
2: [3] | [4]

ZIKV CC_Core sE (A264C), disulfide-linked dimer (domain or fragment)
2: [5] | [6] | [7] | [8]

ZIKV CC_FLE sE (G5C/G102C), disulfide-linked dimer (domain or fragment)
2: [9] | [10] | [11] | [12]
